Data taken from a protein production outcome set (Wang et al. 2014).

Test: label from the status in PepcDB records

| Sequence | protein production |
| --- | --- |
| MGSGPTGLRGTGRQLLALERDVLVLSVAMFAFSLGFQMTSRYIPRYMSVLGAGAVAIGLFGAFGNLISALYPYPGGAVSDRIGSRTALTLFGLLSTAGFLIWLFADAFGTVVVPPVGTEREVFGREVVIGWLEPAVVPVGIFLGLVFAQAWKSFGLGATFAIVKQSVSPDQLATGFASTETFRRTAFLLGPLLAAGILAVFTFEVGFRIVLAVAAAFGLVATLAQHFLYDASEDTLGKSFAGVSAVVDDLRSMPSELRPLLVADTLVRFGNGMVYVFFIIVVTEFLEVGVSLPVVGRLSPDAYFGVLLAIEMLVALLIMLPVSRLSRRVGLKPVVAVGFAVYAIFPAVLIYAPDNAAVLALLFAVSGLRFAGLPAHKALIVGPAESGSGGRVTGSYYLVRNVVVIPSAAIGGAIYAVSPETAFLTATAIGLAGLVVFLAFGREFEAAVAG | failed |
| MKTLHVQTASSSYPVFIGQGIRKKACELLTSLNRPLTRIMFVTDEEVDRLYGDEMLHLLQEKWPVKKVTVPSGEQAKSMDMYTKLQSEAIRFHMDRSSCIIAFGGGVVGDLAGFVAATFMRGIDFIQMPTTLLAHDSAVGGKVAVNHPLGKNLIGAFYQPKAVLYDTDFLRSLPEKELRSGMAEVIKHAFIYDRAFLEELLNIHSLRDITNDQLNDMIFKGISIKASVVQQDEKEEGIRAYLNFGHTLGHAVEAEYGYGQITHGDAVALGMQFALYISEKTVGCEMDRKRLVSWLKSLGYPSQIRKETETSVLLNRMMNDKKTRGGKIQFIVLNELGKVADHTFSRNELESWLNKWRLEETS | failed |
| MKRPHGYQITSLRADKYGGYYAANFVGNEILYFDVNNNVNALVKDGFSYLKSPYDVIEANNLLYVTLYSSDEIGVYDKVLGVKRKSIGNKGTKDGELLAPQYMAIDKRNYIYVSEWGNKRVSKFGLEGDFILHFGSRTSGYKGLLGPTGVTYLNENIYVADSLRNTIEVFDTSGNHLYSVFTSIEGIEGLSSDFVGNNVIVSSKDGVYKYSIAKKTITKILKADKMNSKISSSILDANNQMIVSDFNNAKVSVYKSDASLYDSLEHHHHHH | not failed |
| MDTKKIKTSCLINNYNYAAFLSEAVASTLRQTVKFDEIIIVDDASTDNSAEVIAKFAQQADIKYILKEKNQGQLSSFNEAFLNASGDIIFFLDADDAYEPEYLETVLNFYNRRSECDFVFCAYKKFGAVEGTFQDYEIDVDLGYSVIRTLCNGEWIGSITSTLSMRRDILRKVLPIPNTEDWRVRADDCLVWGASLVGAKKFYLSQPLVRYRIHQNNQFHNSKFVNTDKDYEYKRFWKRNSLFNYILQKNNLELPFLLAFTSLNELKTIPCPNNQDFISYLKIIFLFEKNVYWKIKGIFLLFNYLGKFLLNGKLQIR | failed |
| MVVMYFLFPETTNVVIVSALNFAALFLSFFTHYTSSRKDEDLTILAFSCLFSSLLSLFFLRIFLMNPKNAWMFLSSSKLILAEGFFFFLIGKKKNSFKWLVVLTFVILFAVSVLRFDFTLHLESVSLALFSLLLLIRKPQTTLLSVSLFLYSISSIFFYFFRSAYPYHVASGSIFLMWHFVKKYVETPKEEAEKLSKELEIPPERISSAVTNLYNFLIEILRIIPEILREDDQNRVREMLSKYFSQEVSSYFPKLRDAFSKFAEEYISFLEEKQKFQDMYVVLTKNLAHNLKNPVNAIYVSAQLLKQQFPETSPVVRNIEKLCHEMTEEIERILKTSIGRSEVLRKNDVEKALEPILETARLKNLETDIEMEFDELEIDKDAFLALVLNLFSNAVKYTPSGRVVLKIEKKNDKINLRVSDTGPGLKEQNGFGLFTVKKLVNYLNGSMEVIKKDGTTFVITLPLRRDKNDSTDRGR | failed |
| MSLQLLIAQVLLLLLGSLGISAAAPDLIVKHGLRALLAVALTFAVARIRPRTLLKWGTNVWIVALVLLVLVLFIGQGSQDSPGVRRWLSIAGQEFQPSEFAKLALVLQLASFFSRRGVQNKLLSATGMIIATTALVIFEPDLGTSVLTFGLGIIVMYAAGVRLFNIGGLVLALGLFSLPFVNSYLESHPYILKRWTGHQVRDDGVVTGLDQIGMAHRDLNYGGWWGQGPDGPRWEYFAAHTDMVVAAVGFSSGLLGVLTLLFAYWLIVSTALQVAQLATRIRPMSAEIHGASILAIGCMFLVVGQAFVNLAVAAGLFPVTGVPLPLVSYGFSSMLTMSVALGIIHSAMREVRRQLPVEVKMDDFVGAAADD | failed |
| MGHHHHHHSHMTHSDKPYKCDRCQASFRYKGNLASHKTVHTGEKPYRCNICGAQFNRPANLKTHTRIHSGEKPY | not failed |
| TNHKGEKINVAVKTCKKDCTLDNKEKFMSEAVIMKNLDHPHIVKLIGIIEEEPTWIIMELYPYGELGHYLERNKNSLKVLTLVLYSLQICKAMAYLESINCVHRDIAVRNILVASPECVKLGDFGLSRYIEDEDYYKASVTRLPIKWMSPESINFRRFTTASDVWMFAVCMWEILSFGKQPFFWLENKDVIGVLEKGDRLPKPDLCPPVLYTLMTRCWDYDPSDRPRFTELVCSLSDVYQMEKDIAMEQERNARYRTPKILEPTAFQE | failed |
| MINLWPLLLPAAAWSGWWLANRSNSNKDAHVHNRLSREYVVGLNYLLNEQSDKAVDVFIKLLEVDSDTVETHLALGSLFRRRGEVDRAIRIHQNLIARPQLSIQQRKEALMALGQDYMSAGVFDRAERIFLEVVELGGSRDTSSLQGLLAIYQQEKAWEKALDIIKKLEISTGASFHNQAAHYYCEMASQALKINAMDRAIYCIKQAMNVDPESVRASLMNATIEIKEGRYKQAIRSLKRVPQQDAEFLTEIIEPLVLCHKELDSMPDCIHYLEQTLEKHPRASVIFVIADYLRQNKGMDIAIDFVADNLSKHPSIRGLNRLIYWHLESAHGKVREKLQMLYDITSKFLDNKPIYRCGHCGFGGKHLHWHCPSCKQWGRMKPIHGLEGD | failed |
| MKKEFSAGGVLFKDGEVLLIKTPSNVWSFPKGNIEPGEKPEETAVREVWEETGVKGEILDYIGEIHYWYTLKGERIFKTVKYYLMKYKEGEPRPSWEVKDAKFFPIKEAKKLLKYKGDKEIFEKALKLKEKFKL | not failed |
| MQKTSFALLVAALQLASASALAATPPVADAIWFNGPIITIDDQHPKAQAVAVKDGKILAVGDRQHVLKNKGPATQMLDLKGATLLPGFVDPHGHVSMVGFQAASANLLPPPDGTNNSIPGLQETLRRFEQQSPIPKQFGVLFGFGYDDSQLQEQRHPTKADLDAVTRDLPIAIVHQSSHLGVLNSKALELAGIDASTPNPEGGVIRRVDGSQEPNGVLEENAFFNALIRIFPKLTADQAVDMLSAGQKLYVSYGYTTIQDGRSSPDQVKTAIKAAGDGKLLADIVSYPDILTPGVKQLMVAPWYHPSNQPVVYNQHFRIGGVKLTLDGSPQGKTAWLSQPYFKPPQGQDASYAGYGVVKDADALAIYKEALANRWQILSHTNGDRAIDQLLGSMRAAEQAYPGVDVRPVMIHGQTLRKDQVAELKQLKIFPSLFPMHTYYWGDWHRQSVLGPERAENISPTQWVLQAGMKFTTHHDAPVALPDSMRVLAATVNRTTRSGYVLGPDQRVTPLQALKAMTLWSAYQHFEEDRKGSITPGKLADFAVLSANPLTVKPETLSEIQVLKTVKEGRVIYERPAKVASLPPPFGMHGDPSLPVPQGIRAVAQGDGDLGPALDVIYDRLAPVQP | failed |
| MFLVISVVGSSNIDIVLKVDHFTKPGETQKAIEMNVFPGGKGANQAVTVAKIGEKGCRFVTCIGNDDYSDLLIENYEKLGITGYIRVSLPTGRAFIEVDKTGQNRIIIFPGANAELKKELIDWNTLSESDILLLQNEIPFETTLECAKRFNGIVIFDPAPAQGINEEIFQYLDYLTPNEKEIEALSKDFFGEFLTVEKAAEKFLELGVKNVIVKLGDKGVLLVNKNEKKHFPTFKVKAVDTTAAGDVFNGAFAVALSEGKNPEEAVIFGTAAAAISVTRLGAQSSIPAREEVEAFLKNL | not failed |
| MKQLSGLLGELRQKLCAGFPEQAGIQQLIFPAPGLVGRQLLEWLTAQTHFPQFYWRHRDNHEEAAVCGQTRSFADMKDADDFIQQNPDANGLRIWGLNAFEPVMVFGQLTDNGLVSGKNAQASFLFLPRLEILRRGKKTSLTLNLSSETSLQKDALQAITFIDQLMAARALPVLNARIQHSSHTPGYPQWRNLIQQALNDIEQQKLDKVVLARTTTLTLNKPLSCAAFMAASRQVNHRCYHFMLRFDDRQAFLGSSPERLYLRQQLHLETEALAGTVSNLDSDPQAAVLADWLMHDEKNQRENLLVVDDICQRLQGGVTAVDVMPPEIIRLRKVQHLRRRICAQLSRASDTDCLQRLQPTAAVAGLPREAARQFIAKHELFSRGWYAGSAGYLSLKRTEFSVALRSARVDGQQIHLYAGAGIVAGSDAEQEWQEIDNKSAGLQSLLEHEAQPVKA | not failed |
| MPDVLPHPDGPDSTARPWCSVVIPVLHEAVTIAAQVAHVRHVAARCGMEVEVVVADGAKERDTLAALPEGCCTAVASCPGRARQMNAGAGKARGETLLFLHADTHLPPEAFTLLRRARQAGIRAGAFRLGIAATGLWFRLVERLACWRNRLVRTPYGDQAQFFDAALFRAVGGYPDQPLMEDVEVMRRLRKAGERIVILPGRVETSARRWFVEGPLRCTLRNLCLRLLYALGVPAHALSRWYRAHKERP | failed |
| MGLALCGAAAQAQEKPNFLIIQCDHLTQRVVGAYGQTQGCTLPIDEVASRGVIFSNAYVGCPLSQPSRAALWSGMMPHQTNVRSNSSEPVNTRLPENVPTLGSLFSESGYEAVHFGKTHDMGSLRGFKHKEPVAKPFTDPEFPVNNDSFLDVGTCEDAVAYLSNPPKEPFICIADFQNPHNICGFIGENAGVHTDRPISGPLPELPDNFDVEDWSNIPTPVQYICCSHRRMTQAAHWNEENYRHYIAAFQHYTKMVSKQVDSVLKALYSTPAGRNTIVVIMADHGDGMASHRMVTKHISFYDEMTNVPFIFAGPGIKQQKKPVDHLLTQPTLDLLPTLCDLAGIAVPAEKAGISLAPTLRGEKQKKSHPYVVSEWHSEYEYVTTPGRMVRGPRYKYTHYLEGNGEELYDMKKDPGERKNLAKDPKYSKILAEHRALLDDYITRSKDDYRSLKVDADPRCRNHTPGYPSHEGPGAREILKRK | not failed |
| SEAEGNQVYFAVYTFKARNPNELSVSANQKLKILEFKDVTGNTEWWLAEVNGKKGYVPSNYIRKTE | not failed |
| MSAIDCIITAAGLSSRMGQWKMMLPWQQGTILDTSIKNALQFCSRIILVTGYRGNELHERYVNQSNITIIHNPDYAQGLLTSVKAAVPAVQTEHCFLTHGDMPTLTIDIFRKIWSLRNDGAILPLHNGIPGHPILVSKPCLMQAIKRPNITNMRQALLMGAHYSVEVENAEIILDIDTPDDFITVQKRYTKI | failed |
| MRRLNRKNNEALKKLNDRQRKVLYCIVREYIENKKPVSSQRVLEVSNIEFSSATIRNDMKKLEYLGYIYQPHTSAGRIPTDKGLRFYYEEMLKISKETSEADLAVETFKSMPLADPEKVLFLAGNLLARLTEGYVLIERPNTRDLKILRVMLIPVSEDYLIFSILTEFGVSKVTPIKTQERLNWEEIERQLNFLLRGRTVGEVLMGKIESLKGSGFLRLIESLIGETVERYLDAGLENLLKDETLTLEDIRNLLEEVKDQKFLESLVGEGITVRIGREIGRKKLEKFAVFSGKYFKGESPIGSVYLFTSKVTKYDRNHRVFEYILNRLSEYFTSTSRR | not failed |
| MGNQLAIQMNSDEDDDFDSSDNELGFNVINFTVNAMDLRSDYCSSEMPVIRGKPDLVKFQKTDMYKEIQASSGLVSNPNNRWNLVHALQQRENGLASPHSASFSKNQQRYISNLYIPNKKATRLMSLESKIFVTKFNRSGSKLLTACQDGFVRIYDGAKGTYHLLNRIRARDVEWSIIDADFSPNGEHFAYSTWSRSLFIMPVNGGEDDCQWIDVNGLPSHRLAIFSLRYSPTGDKIIGGSNNSTVIVTDIRTRNTQILRTHRMPGKDVNSVCFLHDKDPNVIIAGCDDGLLKVYDLRTTFRSRDLSKSVASFIGHYDGITYIDSRNDGYHVLSNSKDQSIKIWDIRQPSNMRNRSRSRQQVDPTTWDYRWNRVPREFYNPHKPLEGDSSIMTYRGHRVTKTLLRAKFSPMEQTGQRYIYTGCATGRIIIYDVLTGKIQEAIEGHRTVIRDLDWHPDRSEIVSGSWDTHVHLNNFSRSNANRPVKRSHSSDHDKKPLRRSRRLANRNVTPD | failed |
